Literature values in publication PMC8616177.
Read-outs that look alike come from different tables or passages of the source.

Legend:
EGFR (Homo sapiens) [1] = target: EGFR (Homo sapiens) (UniProt P00533)
EGFR (Homo sapiens) [2] = target: EGFR (Homo sapiens) (UniProt P00533); remark: listed apart in the source

Substance | Kd (EGFR (Homo sapiens) [1]) [nM] | Kd (EGFR (Homo sapiens) [2]) [nM]
EGF (from UniProt P01133) | 1.5 | –
GE11 | – | 22
